Laboratory results reported in patent US20100150950A1, “HUMAN ANTIBODIES THAT BIND CD70 AND USES THEREOF” (Medarex, Inc., priority 2006, published 2010).

T1: CD70 expressed on the surface of 786-O renal cell carcinoma cells (Homo sapiens, UniProt P32970)
T1 construct: natively expressing CD70+ human cancer cell line 786-0 cells; endogenous in cells; host or cells: 786-O (ATCC CRL-1932), A-498 (HTB-44), ACHN (CRL-1611), Caki-1 (HTB-46), Caki-2 (HTB-47)
T1 sequence (P32970 1-193): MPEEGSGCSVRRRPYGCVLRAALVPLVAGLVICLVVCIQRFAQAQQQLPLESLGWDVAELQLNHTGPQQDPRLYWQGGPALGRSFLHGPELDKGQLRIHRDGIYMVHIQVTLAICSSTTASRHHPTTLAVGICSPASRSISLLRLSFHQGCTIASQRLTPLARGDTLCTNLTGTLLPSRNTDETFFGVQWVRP


Target: T1, CD70 expressed on the surface of 786-O renal cell carcinoma cells
Test: Flow cytometry binding to 786-O cells
Protocol: Anti-CD70 antibodies were tested for binding to renal cell carcinoma cells expressing CD70 on their cell surface by flow cytometry.
The renal cell carcinoma cell lines A-498 (ATCC Accession No. HTB-44), 786-O (ATCC Accession No. CRL-1932), ACHN (ATCC Accession No. CRL-1611), Caki-1 (ATCC Accession No. HTB-46) and Caki-2 (ATCC Accession No. HTB-47) were each tested for antibody binding. Binding of the HuMAb 2H5 anti-CD70 human monoclonal antibody was assessed by incubating 1×10^5 cells with 2H5 at a concentration of 1 μg/ml. The cells were washed and binding was detected with a FITC-labeled anti-human IgG Ab. Flow cytometric analyses were performed using a FACSCalibur flow cytometry (Becton Dickinson, San Jose, Calif.). The anti-CD70 monoclonal antibody 2H5 bound to the renal carcinoma cell lines A-498, 786-O, ACHN, Caki-1 and Caki-2.
The renal cell carcinoma cell lines 786-O and A-498 were tested for binding of the HuMAb anti-CD70 human monoclonal antibodies 2H5, 8B5, 10B4 and 18E7 at different concentrations. Binding of the anti-CD70 human monoclonal antibodies was assessed by incubating 5×10^5 cells with antibody at a starting concentration of 50 μg/ml and serially diluting the antibody at a 1:3 dilution. The cells were washed and binding was detected with a PE-labeled anti-human IgG Ab. Flow cytometric analyses were performed using a FACSCalibur flow cytometry (Becton Dickinson, San Jose, Calif.). The results are shown in FIG. 18A (786-O) and FIG. 18B (A-498). […]
Binding of the HuMAb 2H5 and 69A7 anti-CD70 human monoclonal antibodies to the renal cell carcinoma cell line 786-O was assessed by incubating 2×10^5 cells with either 2H5 or 69A7 at a concentration of 10 μg/ml. […] The cells were washed and binding was detected with a FITC-labeled anti-human IgG Ab. […]
The renal cell carcinoma cell line 786-O was tested for binding of the HuMAb anti-CD70 human monoclonal antibody 69A7 at different concentrations. Binding of the anti-CD70 human monoclonal antibodies was assessed by incubating 5×10^5 cells with antibody at a starting concentration of 10 μg/ml and serially diluting the antibody at a 1:3 dilution. The cells were washed and binding was detected with a PE-labeled anti-human IgG Ab. […]
The Daudi lymphoma cell line and 786-O renal carcinoma cell were further tested for antibody binding. Binding of the HuMAb 69A7 anti-CD70 human monoclonal antibody was assessed by incubating 2×10^5 cells with 69A7 at a concentration of 1 μg/ml. The cells were washed and binding was detected with a FITC-labeled anti-human IgG Ab. […] The anti-CD70 monoclonal antibody 69A7 bound to the Daudi lymphoma cell line and 786-O renal carcinoma cell line, as measured by the mean fluorescent intensity (MFI) of staining. […]

Row | Molecule | binding to 786-O at different concentrations (MFI) (1:3 serial dilution from 50 μg/ml (69A7: from 10 μg/ml)) | binding to 786-O cells (antibody 1 μg/ml, FITC-labeled anti-human IgG) | binding to 786-O cells (antibody 10 μg/ml) | relative binding to 786-0 cells (30 to 0.01 ug/ml, flow cytometry)
1 | anti-CD70 human monoclonal antibody 69A7 (antibody, V domains shown, Human IgG from hybridoma; also called HuMAb 69A7; FITC-conjugated 69A7) VH: QVQLQESGPGLVKPSETLSLTCTVSGGSVSSDYYYWSWIRQPPGKGLEWLGYIYYSGSTNYNPSLKSRVTISVDTSKNQFSLKLRSVTTADTAVYYCARGDGDYGGNCFDYWGQGTLVTVSS VL: EIVLTQSPATLSLSPGERATLSCRASQSVSSYLAWYQQKPGQAPRLLIFDASNRATGIPARFSGSGSGTDFTLTISSLEPEDFAVYYCQQRSNWPLTFGGGTKVEIK | concentration dependent | bound | bound | 
2 | 2H5 NF: 2H5 HuMAb lacking fucosyl residues, expressed in CHO cell line Ms704-PF (antibody, V domains shown) VH: QVQLVESGGGVVQPGRSLRLSCAASGFTFSSYIMHWVRQAPGKGLEWVAVISYDGRNKYYADSVKGRFTISRDNSKNTLYLQMNSLRAEDTAVYYCARDTDGYDFDYWGQGTLVTVSS VL: EIVLTQSPATLSLSPGERATLSCRASQSVSSYLAWYQQKPGQAPRLLIYDASNRATGIPARFSGSGSGTDFTLTISSLEPEDFAVYYCQQRTNWPLTFGGGTKVEIK |  |  |  | binds at lower concentration than 1F4 and 1F4 NF
